Experiment [1] has as its target T1, biotinylated murine gp130_(P496L) (D1-D6) with C-terminal biotin acceptor peptide and hexa-histidine tag (murine, UniProt Q00560 23-617, P496L, biotin on the C-terminal biotin acceptor peptide (in vitro, BirA)). In words: SPR. Background: In SPR one partner is held on a chip, and binding of the other changes the refractive index at the surface.
Experiment [2] concerns the target T2, biotinylated murine wildtype gp130 (D1-D6) with C-terminal biotin acceptor peptide and hexa-histidine tag (murine, UniProt Q00560 23-617, biotin on the C-terminal biotin acceptor peptide (in vitro, BirA)).
T2 chain: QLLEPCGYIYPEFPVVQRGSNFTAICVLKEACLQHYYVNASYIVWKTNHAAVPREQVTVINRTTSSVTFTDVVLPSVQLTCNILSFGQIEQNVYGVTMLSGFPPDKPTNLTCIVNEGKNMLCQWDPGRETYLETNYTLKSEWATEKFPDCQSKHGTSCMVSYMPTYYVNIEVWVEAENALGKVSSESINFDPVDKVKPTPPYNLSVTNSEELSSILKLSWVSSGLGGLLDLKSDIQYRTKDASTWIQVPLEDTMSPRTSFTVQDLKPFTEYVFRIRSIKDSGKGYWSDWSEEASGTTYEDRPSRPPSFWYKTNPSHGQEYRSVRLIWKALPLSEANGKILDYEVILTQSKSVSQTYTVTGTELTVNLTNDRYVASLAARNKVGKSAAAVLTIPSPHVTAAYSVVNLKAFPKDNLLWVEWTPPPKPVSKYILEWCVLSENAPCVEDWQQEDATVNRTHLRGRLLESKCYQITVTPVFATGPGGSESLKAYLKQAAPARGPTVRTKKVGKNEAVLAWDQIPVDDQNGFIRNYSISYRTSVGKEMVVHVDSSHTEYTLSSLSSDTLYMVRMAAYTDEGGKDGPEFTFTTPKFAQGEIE
The experiment can be described thus: SPR.

Experiment [3] has as its target T1, biotinylated murine gp130_(P496L) …. In words: SPR; kinetic fit.
The target of experiment [4] is T2, biotinylated murine wildtype gp130 …. In words: SPR; kinetic fit.
For experiment [5], the target named is T1, biotinylated murine gp130_(P496L) …. The experiment can be described thus: SPR; equilibrium fit.
For experiment [6], the target named is T2, biotinylated murine wildtype gp130 …. In words: SPR; equilibrium fit.

B1: HypIL-11 (human IL-11 fused by a short linker to domains D2 and D3 of IL-11Rα, single chain) (other)
chain: PPARPVVSCQAADYENFSCTWSPSQISGLPTRYLTSYRKKTVLGADSQRRSPSTGPWPCPQDPLGAARCVVHGAEFWSQYRINVTEVNPLGASTRLLDVSLQSILRPDPPQGLRVESVPGYPRRLRASWTYPASWPCQPHFLLKFRLQYRPAQHPAWSTVEPAGLEEVITDAVAGLPHAVRVSARDFLDAGTWSTWSPEAWGTPSTPGPPPGPPRVSPDPRAELDSTVLLTRSLLADTRQLAAQLRDKFPADGDHNLDSLPTLAMSAGALGALQLPGVLTRLRADLLSYLRHVQWLRRAGGSSLKTLEPELGTLQARLDRLLRRLQLLMSRLALPQPPPDPPAPPLAPPSSAWGGIRAAHAILGGLHLTLDWAVRGLLLLKTRL
For B1, the koff (usually the rate constant with which the complex falls apart) in experiment [1] was determined as 0.0027 s⁻¹; in experiment [2], 0.0023 s⁻¹. Besides, the Kd (usually the equilibrium constant for the complex coming apart) in experiment [3] was 1.8 nM; in experiment [4], 1.45 nM; in experiment [5] it was 11 nM; in experiment [6] it was 8.5 nM.

Source of the values: article PMC10920896 (2024).
